Results as given in patent US20160152733A1.
Where a chain is given by its changes, count along the chain named.

B1: Fab variant "muCD45R0" (chimeric Fab: variable regions of parental murine CD45R0 antibody clone UCHL1, human constant regions) (Fab, V domains shown, not shown: small tags and cut ends)
VH: QITLKESGPGILQPSQTLSLTCSFSGFSLTTYGIGVGWIRQPPGKGLEWLTHIWWNDNKYYNTALRSRLTISKDSSNNQVLLKIANVDTADTATYYCLYGYTYWGQGTLVTVSA
VL: DVVMTQTPLSLPVSLGDQASISCRSSQSLLYSNGNTYLHWYLQKPGQSPKLLIYKLSNRFSGVPDRFSGSGSGTDFTLKISRVEAEDLGVYFCSQSTHVPWTFGGGTKLEIKR
B2: Fab variant "huCD45R0_v3" (humanized, germline IGHV2-5*01 / IGKV2-30*01 framework with backmutations) (Fab, V domains shown, not shown: small tags and cut ends)
VH: QITLKESGPTLVKPTQTLTLTCTFSGFSLTTYGIGVGWIRQPPGKALEWLTHIWWNDNKYYSPSLKSRLTITKDSSKNQVVLTMTNMDPVDTATYYCLYGYTYWGQGTLVTVSA
VL: B1 VL with S14T, D17Q, Q18P, L42Q, K44R, K50R, L88V, F92Y
B3: Fab variant "huCD45R0_v1" (humanized, 4D5 framework with backmutations) (Fab, V domains shown, not shown: small tags and cut ends)
VH: EVQLVESGGGLVQPGGSLRLSCAFSGFSLTTYGIGVGWIRQAPGKGLEWLTHIWWNDNKYYADSVKGRFTISKDSSKNTVYLQMNSLRAEDTAVYYCLYGYTYWGQGTLVTVSS
VL: DIQMTQSPSSLSASVGDRVTITCRSSQSLLYSNGNTYLHWYQQKPGKAPKLLIYKLSNRFSGVPSRFSGSRSGTDFTLTISSLQPEDFATYYCSQSTHVPWTFGQGTKVEIKR
B4: Fab variant "huCD45R0_v2" (humanized, 4D5 framework with extended backmutations) (Fab, V domains shown, not shown: small tags and cut ends)
VH: B3 VH with E1Q, V2I, K66R
VL: B3 VL with I2V, Q3V, S7T, T22S, S65D, R71G

Legend:
[1] = target: human CD45R0 antigen (splice variant/isoform CD45R0 of CD45 antigen, PTPRC), cell-bound (human) (UniProt P08575); assay: flow cytometry, biotinylated Fab 5 µg/mL on human CD3+ CD45RA- T cells, donor 1 (text: anti-Biotin-PE; table head: anti-HIS-PE)
[2] = target: human CD45R0 antigen (splice variant/isoform CD45R0 of CD45 antigen, PTPRC), cell-bound (human) (UniProt P08575); assay: flow cytometry on human T cells, from median fluorescence at 5 µg/mL; muCD45R0 set to 100%
[3] = target: human CD45R0 antigen (splice variant/isoform CD45R0 of CD45 antigen, PTPRC), cell-bound (human) (UniProt P08575); assay: flow cytometry, human PBMC gated on living CD45RA-negative WBC, Fab 5 µg/mL + anti-His-PE
[4] = target: human CD45R0 antigen (splice variant/isoform CD45R0 of CD45 antigen, PTPRC), cell-bound (human) (UniProt P08575); assay: flow cytometry on human PBMC, from median fluorescence at 5 µg/mL; muCD45R0 set to 100%
[5] = target: human CD45R0 antigen (splice variant/isoform CD45R0 of CD45 antigen, PTPRC), cell-bound (human) (UniProt P08575); assay: flow cytometry, biotinylated Fab 5 µg/mL on human CD3+ CD45RA- T cells, donor 2 (text: anti-Biotin-PE; table head: anti-HIS-PE)
[6] = target: human CD45R0 antigen (splice variant/isoform CD45R0 of CD45 antigen, PTPRC), cell-bound (human) (UniProt P08575); assay: flow cytometry on human PBMC, from max. MFI; muCD45R0 set to 100%
[7] = target: human CD45R0 antigen (splice variant/isoform CD45R0 of CD45 antigen, PTPRC), cell-bound (human) (UniProt P08575); assay: flow cytometry, indirect staining of human PBMC, Fab 1-10 µg/mL + anti-His-PE
[8] = target: human CD45R0 antigen (splice variant/isoform CD45R0 of CD45 antigen, PTPRC), cell-bound (human) (UniProt P08575); assay: flow cytometry on human PBMC, from median fluorescence at 5 µg/mL; relative to muCD45R0 = 100%
[9] = target: human CD45R0 antigen (splice variant/isoform CD45R0 of CD45 antigen, PTPRC), cell-bound (human) (UniProt P08575); assay: flow cytometry on human PBMC, from max. MFI; relative to muCD45R0 = 100%

Row | Binder | median fluorescence, donor 1 [1] | relative affinity (%) [2] | median fluorescence (anti-HIS PE) [3] | relative affinity (%) [4] | median fluorescence, donor 2 [5] | relative affinity (%) [6] | max. mean fluorescence (anti-HIS-PE) [7] | relative affinity (%) [8] | relative affinity (%) [9]
1 | B1 | 8 | 100% | 26 | 100% | 21 | 100% | 37 |  | 
2 | B2 | 9.5 |  | 43 |  | 24 |  |  | 165% | 
3 | B3 |  |  |  |  |  |  | 3 |  | 8%
4 | B4 |  |  | 8 |  |  |  |  | 31% | 
